Laboratory results reported in article PMC3390797, “Regulation of ASIC channels by a stomatin/STOML3 complex located in a mobile vesicle pool in sensory neurons” (Open Biology, 2012).

T1: Strep-tagged STOML3-AmCyan1 (stomatin-like protein-3, wild type) (mouse, UniProt Q6PE84 1-287)
T1 construct: Stomatin-like protein-3 (STOML3), mouse; Made from the STOML3-EGFP plasmid 'described previously' by cloning into pAmCyan1-N1 with a Strep tag; also called STOML3-Strep; STOML3-CFP; source: CHO cells, transiently transfected; in lysate (co-IP) and in live cells (FRET)
T1 sequence (looked up): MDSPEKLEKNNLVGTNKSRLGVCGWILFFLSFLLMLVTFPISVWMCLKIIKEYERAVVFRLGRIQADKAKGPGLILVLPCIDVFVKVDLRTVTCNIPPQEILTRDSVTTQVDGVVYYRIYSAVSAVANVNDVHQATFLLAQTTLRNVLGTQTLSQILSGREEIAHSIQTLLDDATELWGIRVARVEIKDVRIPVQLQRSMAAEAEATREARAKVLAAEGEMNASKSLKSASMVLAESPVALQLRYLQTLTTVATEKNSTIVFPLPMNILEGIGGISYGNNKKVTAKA


Biological target: T1, Strep-tagged STOML3-AmCyan1 …
Experiment: FRET or BRET; three-cube FRET imaging of CHO cells co-expressing the AmCyan1 (CFP) and EYFP fusions; apparent FRET efficiency, calibrated with two fluorophore-tandem constructs
Conditions: partners not purified

| apparent FRET efficiency (mean, cell-averaged) [%] | Binder |
| --- | --- |
| 13.1 ± 0.49 | EYFP-tagged ASIC2b (natural protein, rat, UniProt Q62962-2 1-563, looked up, source: CHO cells, transiently transfected, in live cells) MSRSGGARLPATALSGPGRFRMAREQPAPVAVAAARQPGGDRSGDPALQGPGVARRGRPSLSRTKLHGLRHMCAGRTAAGGSFQRRALWVLAFCTSLGLLLSWSSNRLLYWLSFPSHTRVHREWSRQLPFPAVTVCNNNPLRFPRLSKGDLYYAGHWLGLLLPNRTARPLVSELLRGDEPRRQWFRKLADFRLFLPPRHFEGISAAFMDRLGHQLEDMLLSCKYRGELCGPHNFSSVFTKYGKCYMFNSGEDGKPLLTTVKGGTGNGLEIMLDIQQDEYLPIWGETEETTFEAGVKVQIHSQSEPPFIQELGFGVAPGFQTFVATQEQRLTYLPPPWGECRSSEMGLDFFPVYSITACRIDCETRYIVENCNCRMVHMPGDAPFCTPEQHKECAEPALGLLAEKDSNYCLCRTPCNLTRYNKELSMVKIPSKTSAKYLEKKFNKSEKYISENILVLDIFFEALNYETIEQKKAYEVAALLGDIGGQMGLFIGASLLTILELFDYIYELIKEKLLDLLGKEEEEGSHDENMSTCDTMPNHSETISHTVNVPLQTALGTLEEIAC |
| 14.4 ± 0.51 | EYFP-tagged ASIC1a (natural protein, mouse, UniProt Q6NXK8-1 1-526, looked up, source: CHO cells, transiently transfected, in live cells) MELKTEEEEVGGVQPVSIQAFASSSTLHGLAHIFSYERLSLKRALWALCFLGSLAVLLCVCTERVQYYFCYHHVTKLDEVAASQLTFPAVTLCNLNEFRFSQVSKNDLYHAGELLALLNNRYEIPDTQMADEKQLEILQDKANFRSFKPKPFNMREFYDRAGHDIRDMLLSCHFRGEACSAEDFKVVFTRYGKCYTFNSGQDGRPRLKTMKGGTGNGLEIMLDIQQDEYLPVWGETDETSFEAGIKVQIHSQDEPPFIDQLGFGVAPGFQTFVSCQEQRLIYLPSPWGTCNAVTMDSDFFDSYSITACRIDCETRYLVENCNCRMVHMPGDAPYCTPEQYKECADPALDFLVEKDQEYCVCEMPCNLTRYGKELSMVKIPSKASAKYLAKKFNKSEQYIGENILVLDIFFEVLNYETIEQKKAYEIAGLLGDIGGQMGLFIGASILTVLELFDYAYEVIKHRLCRRGKCQKEAKRNSADKGVALSLDDVKRHNPCESLRGHPAGMTYAANILPHHPARGTFEDFTC |
| 13.9 ± 0.73 | EYFP-tagged ASIC1b (natural protein, mouse, UniProt Q6NXK8-2 1-559, looked up, source: CHO cells, transiently transfected, in live cells) MPIQIFCSVSFSSGEEAPGSMGDIWGPHHHHRQQQDSSESEEEEEKEKESGMELDEGDSPRDLVAFANSCTLHGASHVFVEGGPGPRQALWAVAFVIALGAFLCQVGDRVAYYLSYPHVTLLDEVATTELVFPAVTFCNTNAVRLSQLSYPDLLYLAPMLGLDESDDPGVPLAPPGPEAFSGEPFNLHRFYNRSCHRLEDMLLYCSYCGGPCGPHNFSVVFTRYGKCYTFNSGQDGRPRLKTMKGGTGNGLEIMLDIQQDEYLPVWGETDETSFEAGIKVQIHSQDEPPFIDQLGFGVAPGFQTFVSCQEQRLIYLPSPWGTCNAVTMDSDFFDSYSITACRIDCETRYLVENCNCRMVHMPGDAPYCTPEQYKECADPALDFLVEKDQEYCVCEMPCNLTRYGKELSMVKIPSKASAKYLAKKFNKSEQYIGENILVLDIFFEVLNYETIEQKKAYEIAGLLGDIGGQMGLFIGASILTVLELFDYAYEVIKHRLCRRGKCQKEAKRNSADKGVALSLDDVKRHNPCESLRGHPAGMTYAANILPHHPARGTFEDFTC |

Further lines, the binder ahead of its results:

| Binder | apparent FRET efficiency (mean, cell-averaged) [%] |
| --- | --- |
| EYFP-tagged ASIC4 (natural protein, mouse, UniProt Q7TNS7 1-539, looked up, source: CHO cells, transiently transfected, in live cells) MPIEIVCKIKFAEEDAKPKEKEAGDEQSLLGAAQGPAAPRDLATFASTSTLHGLGRACGPGPHGLRRTLWALALLTSLAAFLYQAASLARGYLTRPHLVAMDPAAPAPVAGFPAVTLCNINRFRHSALSDADIFHLANLTGLPPKDRDGHRAAGLRYPEPDMVDILNRTGHQLADMLKSCNFSGHHCSASNFSVVYTRYGKCYTFNADPQSSLPSRAGGMGSGLEIMLDIQQEEYLPIWRETNETSFEAGIRVQIHSQEEPPYIHQLGFGVSPGFQTFVSCQEQRLTYLPQPWGNCRAESELREPELQGYSAYSVSACRLRCEKEAVLQRCHCRMVHMPGNETICPPNIYIECADHTLDSLGGGSEGPCFCPTPCNLTRYGKEISMVKIPNRGSARYLARKYNRNETYIRENFLVLDVFFEALTSEAMEQQAAYGLSALLGDLGGQMGLFIGASILTLLEILDYIYEVSWDRLKRVWRRPKTPLRTSTGGISTLGLQELKEQSPCPSRGRAEGGGASSLLPNHHHPHGPPGSLFEDFAC | 15.4 ± 0.65 |
| EYFP-tagged ASIC3 (natural protein, rat, UniProt O35240 1-533, looked up, source: CHO cells, transiently transfected, in live cells) MKPRSGLEEAQRRQASDIRVFASSCTMHGLGHIFGPGGLTLRRGLWATAVLLSLAAFLYQVAERVRYYGEFHHKTTLDERESHQLTFPAVTLCNINPLRRSRLTPNDLHWAGTALLGLDPAEHAAYLRALGQPPAPPGFMPSPTFDMAQLYARAGHSLEDMLLDCRYRGQPCGPENFTVIFTRMGQCYTFNSGAHGAELLTTPKGGAGNGLEIMLDVQQEEYLPIWKDMEETPFEVGIRVQIHSQDEPPAIDQLGFGAAPGHQTFVSCQQQQLSFLPPPWGDCNTASLDPDDFDPEPSDPLGSPRPRPSPPYSLIGCRLACESRYVARKCGCRMMHMPGNSPVCSPQQYKDCASPALDAMLRKDTCVCPNPCATTRYAKELSMVRIPSRASARYLARKYNRSESYITENVLVLDIFFEALNYEAVEQKAAYEVSELLGDIGGQMGLFIGASLLTILEILDYLCEVFQDRVLGYFWNRRSAQKRSGNTLLQEELNGHRTHVPHLSLGPRPPTTPCAVTKTLSASHRTCYLVTRL | 15.5 ± 0.67 |
| EYFP-tagged ASIC2a (natural protein, rat, UniProt Q62962-1 1-512, looked up, also called ASIC2a-YFP; source: CHO cells, transiently transfected, in live cells) MDLKESPSEGSLQPSSIQIFANTSTLHGIRHIFVYGPLTIRRVLWAVAFVGSLGLLLVESSERVSYYFSYQHVTKVDEVVAQSLVFPAVTLCNLNGFRFSRLTTNDLYHAGELLALLDVNLQIPDPHLADPTVLEALRQKANFKHYKPKQFSMLEFLHRVGHDLKDMMLYCKFKGQECGHQDFTTVFTKYGKCYMFNSGEDGKPLLTTVKGGTGNGLEIMLDIQQDEYLPIWGETEETTFEAGVKVQIHSQSEPPFIQELGFGVAPGFQTFVATQEQRLTYLPPPWGECRSSEMGLDFFPVYSITACRIDCETRYIVENCNCRMVHMPGDAPFCTPEQHKECAEPALGLLAEKDSNYCLCRTPCNLTRYNKELSMVKIPSKTSAKYLEKKFNKSEKYISENILVLDIFFEALNYETIEQKKAYEVAALLGDIGGQMGLFIGASLLTILELFDYIYELIKEKLLDLLGKEEEEGSHDENMSTCDTMPNHSETISHTVNVPLQTALGTLEEIAC | 13.4 ± 0.52 |
